Assay results taken from the DeepSol protein solubility set.

assay: soluble on expression in E. coli; label from the status in PepcDB or PDB records

Soluble on expression in E. coli, not soluble:
MGSDKIHHHHHHCLDVDIVDRVEKEDGFFKTEDHALAAINGVYSTLYAFAYHKTNWAIILPTYEDAMFSTGNAVPATVSNNTHSAGSAPVVNFWGELYNGIKNANEVIARVPSISFKSENDKNRIIAEAYFLRALYHYDLMRLYGGVNGIPIVIEPVTGIENAYVPQSPASKVYEQIISDFEYAAGLNDDDTPRLPKRLDPAYTSGRVTNGAAHAFLAEVYLTLGRWEDAAREAQEVISSEQYTFVNDYQNLWDIEQESLAQTEHIFSVPFFRDKDALADQSLGSNIAHLFNPAGVQVGGKLVSGNPYGKGAGAHRVQKWFIKYFQDDQGNLGYSDPSVDASIDESKLISKDYRIEVTFWRRFQQKNNNTGVLGNIVTVYPAAGGNSQENWGYIRKFIDPQGINNRTNENDMPRLRLSDMYLIRAEALNELGKYTEACQAIDMVRERARKANGTERAYPKYIGSDRPDNIGRTLTKQEFRWLVFMERGLEFAGEQKRWFDLIRMKYDENTQMYDYIKDTFIPSRPAADVQKQGVMAARKKYFPIPFAEVSRNDGVQQNPGY
MGSDKIHHHHHHMISNLYFVKLKNIGEHEFIKRYIKNYMDIKLLDDVFINEKRGYKVDGFKLSYAFPFMSLYDIGWKAISASTSDIIAKGVKPEFYLISLGLPPDFDVNKAEELIGGISDAIHYYGGRYVGGDLNDSDSNGWVDVFVEGEVLCDISDKVIDDGDLLVIGDYIGYTTNVFISYINNFNIQILPESLLKVKHPIVKKSLLFFMKKYCKFIKYSTDISDGLMVSLYKIVDNFNLGINITEIPIDKNVFNSLKLRLNLTELDILKYAGEEFLPLLIIDKNSPVKEMLAELQYLAFNPLIIGQVIHENRLITYKNTVIKNTGWDNFIGWY
MAHHHHHHMDVSRRLAGENHDFRRSTQVPALCTKPQGGKGMRLNVLHEGAVPANDFHSAHLTPYEMDEIKGYSEVYYVGQNCDRKVQAPVEGGHNKGYDDERGDYLIRLRDHIAYRYEVLSTLGSGSFGQVVKAVDHCKNCTVALKIIRNRKRFTAQAKIEVQILSHLKKGDPSGIYGIVQMIDNFTFRSHVCITYELLGCNLYTYLKQRRFKPLPLDVVRKIGAGVLVSLSYMWRENIIHCDLKPENILLRSPNDTAVKVIDLGSSCFENARLFTYIQSRFYRAPEVLLGCPYSRCIDLWSYGCVLCELASGYPIFPGESEQEQMACIMEFLGTPPRDFILRSPRKHEFFEASANYSPKLVPNSKLKIRFPGTKNIAAFLGLPEGDPFVSFVKLFLEWVPDSRATPRRAMKHPWIADEVNELLSKQKRNTAATGEDDSESKFHKALPRLPKIGK
MGSDKIHHHHHHMQLSSRPSSLVLDHHQNKFLTPWSDPADPHILFPIQPLEQLLVQLGWPDPQAWLIHWQKRGGISLKRPFWHPSTRTDWIWGLGLPLLTLVEGCLGKSDRSLLGITGLPGCGKTSLGCWLEAAAGELGWPIKVISLDDFYWPFPQLDRSMSGNPWRVPRALPGSHDLDLLASVLDTWQSTGHLKAPMFDKALRHGRGDRDGWHLSDPKVLVIEGWILGCLPCKFAEAGQFSDQLVPPLNKLEHDYRLVVQEALNGYVPIWDRLDTLWHLKAIDPSSTRIWKANQESLMQLNRGVCLDQESFEGFVRMILASIPLTCLDGIEADVVATLTPARQLMWVGQRGYQDSSSSDSCIG

Soluble on expression in E. coli, soluble:
MYIECEGILKRYFKDVPEIIKRACKFAREKLGEGSHGFSHTLRVLAIALHIGSKENADLEILALAALLHDIARPLEDKGVIRDHAIEGAKIAKEFLSNYEKVEEVAHAIASHRFSNDVEPRTLEAKILSDADKIDALGAIGIARVFIYSCEKERSIEDSIKHFEEKILKLKDLMYTKTGKEIAEKRHKVVKWYVETLKSELREFLYLEHHHHHH
GPGSMSKQKNVEINYDEVDETTGFKAAEMFVWLKFEESYLQKPEDEREADVDAWADTFCEEMEGEGMNYDRNFVRSVCTLGIYAGLRDEFQQRTGSGKAIYANGDRYDGEFFEGKKHGRGRYIFVSLGKSECDRIVEKELQKLGDVVAGENFVKAVADRYKIGCHIISYIIEYGFHPCYHGDYVRGKRVGRGLMKNKDGTVYKGEFLENKREGRGMFFYLNGDIYSGNWKNGRKHGYGTYHFVGGNEYRGMWNDGVFTHGQWIFPDGVYYEGHFNKKNRPCDEAASMHYPALKMAQTGTFKRGTWAPTSALEVCEETPVDGMTWTD
